Test results taken from US20230322924A1 (Janssen / Centocor, published 2023).

Legend:
[1] = biological target: T1, Cyno CD33 full length (cynomolgus monkey); experiment: flow cytometry on HEK293F cells expressing cyno CD33
T1 construct: also called cyCD33

[2] = biological target: T2, Human CD33 ECD-HSA (human); experiment: SPRi off-rate screen (IBIS MX96)
T2 construct: CD33 ECD fused at the C-terminus to monomeric HSA (C58S) and a six-histidine tag; also called C33W2; huCD33 ECD-HSA

[3] = biological target: T3, Human CD33-C2-HSA (human); experiment: SPRi off-rate screen (IBIS MX96)
T3 construct: C2 domain of human CD33 fused to HSA; also called C33W4; huCD33-C2-HSA

[4] = biological target: T2, Human CD33 ECD-HSA; experiment: ProteOn SPR, mAb captured on anti-human Fc, antigen as analyte
Description: (§1) The panel of mAbs was then further characterized for full affinity analysis as well as epitope binning. The binding of anti-CD33 mAbs to recombinant human CD33 ECD-HSA (C33W2) and cyno CD33 ECD-HSA (C33W1) was measured by ProteOn SPR (Bio-Rad). […] Different mAbs were captured on the anti-human Fc IgG surface at 0.25 or 0.5 μg/ml (160-300 RU) in vertical ligand orientation, with the 6th ligand channel as no ligand surface control. Human and cyno CD33-HSA proteins at 0.3 μM concentration in 3-fold dilution series of 5 concentrations flew in as analyte to bind to captured mAbs in the horizontal orientation. A buffer sample was also injected in the 6th channel to monitor the dissociation of captured mAb and baseline stability. […] The raw biding data were processed by double referencing after subtracting the response data from: 1) the inter-spot to correct for the non-specific interactions between the Ag and the empty chip surface; 2) the buffer channel to correct for baseline drifting due to the dissociation of captured mAb surface over time. The processed data at all antigen concentrations for each mAb were globally fit to a 1:1 simple Langmuir binding model to extract estimates of the kinetic (kₒₙ, koff) and affinity (Kd) constants.

[5] = biological target: T4, Cyno CD33 ECD-HSA (cynomolgus monkey); experiment: as above
T4 construct: Cyno CD33 ECD fused to HSA and a six-histidine tag; also called C33W1
Description: as §1

[6] = biological target: T5, Human CD33 full length (human, UniProt P20138 18-364); experiment: flow cytometry on HEK293F cells expressing human CD33
T5 construct: also called huCD33
T5 sequence (P20138 18-364 limits assumed): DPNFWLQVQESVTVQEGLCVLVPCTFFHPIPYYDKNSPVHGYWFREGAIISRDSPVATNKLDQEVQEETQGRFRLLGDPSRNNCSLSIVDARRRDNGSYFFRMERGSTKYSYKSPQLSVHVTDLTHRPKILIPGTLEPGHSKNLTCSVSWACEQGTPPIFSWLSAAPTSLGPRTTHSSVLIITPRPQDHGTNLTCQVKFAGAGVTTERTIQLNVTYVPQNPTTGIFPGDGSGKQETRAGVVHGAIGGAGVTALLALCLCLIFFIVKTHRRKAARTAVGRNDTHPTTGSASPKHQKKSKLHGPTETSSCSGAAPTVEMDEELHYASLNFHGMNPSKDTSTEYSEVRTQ

B1: C33B912 (antibody, V domains shown)
VH: EVQLVESGGGLVQPGRSLRLSCAASGFTFDDYAMHWVRQAPGKGLEWVSGIGWSGGSIVYADSVKGRFTISRDNAKNSLYLQMNSLRAEDTALYYCAKDSPYGDFFDYWGQGTLVTVSS
VL: DIVMTQSPDSLAVSLGERATINCKSSQTVFYSSNNKNYLAWYQQKPGQPPKLLISWASTRKSGVPDRFSGSGSGTDFTLTVSSLQAEDVAVYYCQHYYSTPYTFGQGTKLEIK
notes: OMNIMouse-derived anti-CD33 mAb; also called C33H252/C33L118; C33F550
MFI at 0 nM (background) [1]: 125 MFI | MFI at 0.6 nM [1]: 1730 MFI | MFI at 6 nM [1]: 7270 MFI | MFI at 60 nM [1]: 15100 MFI | koff [2]: 1.29e-05 s⁻¹ | koff [3]: 6.68e-05 s⁻¹ | Kd [4]: 0.0302 nM | koff [4]: 4.29e-05 s⁻¹ | kon [4]: 1.42e+06 M⁻¹ s⁻¹ | Kd [5]: 0.433 nM | koff [5]: 0.00065 s⁻¹ | kon [5]: 1.5e+06 M⁻¹ s⁻¹ | MFI at 0 nM (background) [6]: 150 MFI | MFI at 0.6 nM [6]: 15700 MFI | MFI at 6 nM [6]: 101000 MFI | MFI at 60 nM [6]: 237000 MFI

B2: C33B778 (antibody, IgG4, V domains shown)
VH: QVQLVESGGGVVQPGRSLRLSCVASGFTFSSYGMHWVRQAPGKGLEWVAVISYDGSNKYYADSVKGRFTISRDNSKNTLYLQMNSLRAEGTAVYYCAKDFRSFDWLPPDSASYHGMDVWGQGTTVTVSS
VL: SYELTQPPSVSVSPGQTASITCSGDKLGDKYACWYQQKPGQSPVLVIYQDGKRPSGIPERFSGSNFGNKATLTISGTQAMDEADYYCQAWDRNTVVFGGGTKLTVL
notes: also called C33H66/C33L60; C33F78
koff [2]: 4.72e-05 s⁻¹ | koff [3]: 0.00257 s⁻¹
